Values of other authors in PMC3379994, “Comprehensive Analysis of Interactions between the Src-Associated Protein in Mitosis of 68 kDa and the Human Src-Homology 3 Proteome” (PLoS ONE, 2012).

Target: Nef (Human immunodeficiency virus 1) (UniProt P04324)
Assay: SPR

Sequence of Hck SH3 (P08631 75-141): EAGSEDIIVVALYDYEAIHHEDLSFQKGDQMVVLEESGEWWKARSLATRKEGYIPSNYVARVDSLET

Substance: Hck SH3 (from UniProt P08631)
- Kd: 250 nM
